B1: H183/L072 VH T28V (antibody, name in Kabat numbering, V domains shown)
VH: QVQLVESGGGLVQPGRSLRLSCAASGFVFSNAWMHWVRQAPGKGLEWVAQIKDKGNAYAAYYAPSVKGRFTISRDDSKNSIYLQMNSLKTEDTAVYYCHYVHYASASTVLPAFGVDAWGQGTTVTVSS
VL: DIVMTQSPLSLPVTPGEPASISCQASQELVHMNRNTYLHWYQQKPGQAPRLLIYKVSNRFPGVPDRFSGSGSGTDFTLKISRVEAEDVGVYYCAQGTSVPFTFGQGTKLEIK
B2: H183/L072 VH V100cL (antibody, name in Kabat numbering, V domains shown)
VH: QVQLVESGGGLVQPGRSLRLSCAASGFTFSNAWMHWVRQAPGKGLEWVAQIKDKGNAYAAYYAPSVKGRFTISRDDSKNSIYLQMNSLKTEDTAVYYCHYVHYASASTLLPAFGVDAWGQGTTVTVSS
VL: DIVMTQSPLSLPVTPGEPASISCQASQELVHMNRNTYLHWYQQKPGQAPRLLIYKVSNRFPGVPDRFSGSGSGTDFTLKISRVEAEDVGVYYCAQGTSVPFTFGQGTKLEIK
B3: H183/L072 VH V95L (antibody, name in Kabat numbering, V domains shown)
VH: QVQLVESGGGLVQPGRSLRLSCAASGFTFSNAWMHWVRQAPGKGLEWVAQIKDKGNAYAAYYAPSVKGRFTISRDDSKNSIYLQMNSLKTEDTAVYYCHYLHYASASTVLPAFGVDAWGQGTTVTVSS
VL: DIVMTQSPLSLPVTPGEPASISCQASQELVHMNRNTYLHWYQQKPGQAPRLLIYKVSNRFPGVPDRFSGSGSGTDFTLKISRVEAEDVGVYYCAQGTSVPFTFGQGTKLEIK
B4: H183/L072 VH T100bL (antibody, name in Kabat numbering, V domains shown)
VH: QVQLVESGGGLVQPGRSLRLSCAASGFTFSNAWMHWVRQAPGKGLEWVAQIKDKGNAYAAYYAPSVKGRFTISRDDSKNSIYLQMNSLKTEDTAVYYCHYVHYASASLVLPAFGVDAWGQGTTVTVSS
VL: DIVMTQSPLSLPVTPGEPASISCQASQELVHMNRNTYLHWYQQKPGQAPRLLIYKVSNRFPGVPDRFSGSGSGTDFTLKISRVEAEDVGVYYCAQGTSVPFTFGQGTKLEIK
B5: H183/L072 VH V95M (antibody, name in Kabat numbering, V domains shown)
VH: QVQLVESGGGLVQPGRSLRLSCAASGFTFSNAWMHWVRQAPGKGLEWVAQIKDKGNAYAAYYAPSVKGRFTISRDDSKNSIYLQMNSLKTEDTAVYYCHYMHYASASTVLPAFGVDAWGQGTTVTVSS
VL: DIVMTQSPLSLPVTPGEPASISCQASQELVHMNRNTYLHWYQQKPGQAPRLLIYKVSNRFPGVPDRFSGSGSGTDFTLKISRVEAEDVGVYYCAQGTSVPFTFGQGTKLEIK
B6: H183/L072 VH T100bI (antibody, name in Kabat numbering, V domains shown)
VH: QVQLVESGGGLVQPGRSLRLSCAASGFTFSNAWMHWVRQAPGKGLEWVAQIKDKGNAYAAYYAPSVKGRFTISRDDSKNSIYLQMNSLKTEDTAVYYCHYVHYASASIVLPAFGVDAWGQGTTVTVSS
VL: DIVMTQSPLSLPVTPGEPASISCQASQELVHMNRNTYLHWYQQKPGQAPRLLIYKVSNRFPGVPDRFSGSGSGTDFTLKISRVEAEDVGVYYCAQGTSVPFTFGQGTKLEIK
B7: H183/L072 VH V95P (antibody, name in Kabat numbering, V domains shown)
VH: QVQLVESGGGLVQPGRSLRLSCAASGFTFSNAWMHWVRQAPGKGLEWVAQIKDKGNAYAAYYAPSVKGRFTISRDDSKNSIYLQMNSLKTEDTAVYYCHYPHYASASTVLPAFGVDAWGQGTTVTVSS
VL: DIVMTQSPLSLPVTPGEPASISCQASQELVHMNRNTYLHWYQQKPGQAPRLLIYKVSNRFPGVPDRFSGSGSGTDFTLKISRVEAEDVGVYYCAQGTSVPFTFGQGTKLEIK
B8: H183/L072 VH V100cI (antibody, name in Kabat numbering, V domains shown)
VH: QVQLVESGGGLVQPGRSLRLSCAASGFTFSNAWMHWVRQAPGKGLEWVAQIKDKGNAYAAYYAPSVKGRFTISRDDSKNSIYLQMNSLKTEDTAVYYCHYVHYASASTILPAFGVDAWGQGTTVTVSS
VL: DIVMTQSPLSLPVTPGEPASISCQASQELVHMNRNTYLHWYQQKPGQAPRLLIYKVSNRFPGVPDRFSGSGSGTDFTLKISRVEAEDVGVYYCAQGTSVPFTFGQGTKLEIK
B9: H183/L072 VH V100cA (antibody, name in Kabat numbering, V domains shown)
VH: QVQLVESGGGLVQPGRSLRLSCAASGFTFSNAWMHWVRQAPGKGLEWVAQIKDKGNAYAAYYAPSVKGRFTISRDDSKNSIYLQMNSLKTEDTAVYYCHYVHYASASTALPAFGVDAWGQGTTVTVSS
VL: DIVMTQSPLSLPVTPGEPASISCQASQELVHMNRNTYLHWYQQKPGQAPRLLIYKVSNRFPGVPDRFSGSGSGTDFTLKISRVEAEDVGVYYCAQGTSVPFTFGQGTKLEIK
B10: H183/L072 VH T100bM (antibody, name in Kabat numbering, V domains shown)
VH: QVQLVESGGGLVQPGRSLRLSCAASGFTFSNAWMHWVRQAPGKGLEWVAQIKDKGNAYAAYYAPSVKGRFTISRDDSKNSIYLQMNSLKTEDTAVYYCHYVHYASASMVLPAFGVDAWGQGTTVTVSS
VL: DIVMTQSPLSLPVTPGEPASISCQASQELVHMNRNTYLHWYQQKPGQAPRLLIYKVSNRFPGVPDRFSGSGSGTDFTLKISRVEAEDVGVYYCAQGTSVPFTFGQGTKLEIK
B11: H183/L072 VH V95A (antibody, name in Kabat numbering, V domains shown)
VH: QVQLVESGGGLVQPGRSLRLSCAASGFTFSNAWMHWVRQAPGKGLEWVAQIKDKGNAYAAYYAPSVKGRFTISRDDSKNSIYLQMNSLKTEDTAVYYCHYAHYASASTVLPAFGVDAWGQGTTVTVSS
VL: DIVMTQSPLSLPVTPGEPASISCQASQELVHMNRNTYLHWYQQKPGQAPRLLIYKVSNRFPGVPDRFSGSGSGTDFTLKISRVEAEDVGVYYCAQGTSVPFTFGQGTKLEIK
B12: H183/L072 VH T100bA (antibody, name in Kabat numbering, V domains shown)
VH: QVQLVESGGGLVQPGRSLRLSCAASGFTFSNAWMHWVRQAPGKGLEWVAQIKDKGNAYAAYYAPSVKGRFTISRDDSKNSIYLQMNSLKTEDTAVYYCHYVHYASASAVLPAFGVDAWGQGTTVTVSS
VL: DIVMTQSPLSLPVTPGEPASISCQASQELVHMNRNTYLHWYQQKPGQAPRLLIYKVSNRFPGVPDRFSGSGSGTDFTLKISRVEAEDVGVYYCAQGTSVPFTFGQGTKLEIK
B13: H183/L072 VH V95I (antibody, name in Kabat numbering, V domains shown)
VH: QVQLVESGGGLVQPGRSLRLSCAASGFTFSNAWMHWVRQAPGKGLEWVAQIKDKGNAYAAYYAPSVKGRFTISRDDSKNSIYLQMNSLKTEDTAVYYCHYIHYASASTVLPAFGVDAWGQGTTVTVSS
VL: DIVMTQSPLSLPVTPGEPASISCQASQELVHMNRNTYLHWYQQKPGQAPRLLIYKVSNRFPGVPDRFSGSGSGTDFTLKISRVEAEDVGVYYCAQGTSVPFTFGQGTKLEIK
B14: H183/L072 VH V63M (antibody, name in Kabat numbering, V domains shown)
VH: QVQLVESGGGLVQPGRSLRLSCAASGFTFSNAWMHWVRQAPGKGLEWVAQIKDKGNAYAAYYAPSMKGRFTISRDDSKNSIYLQMNSLKTEDTAVYYCHYVHYASASTVLPAFGVDAWGQGTTVTVSS
VL: DIVMTQSPLSLPVTPGEPASISCQASQELVHMNRNTYLHWYQQKPGQAPRLLIYKVSNRFPGVPDRFSGSGSGTDFTLKISRVEAEDVGVYYCAQGTSVPFTFGQGTKLEIK
B15: H183/L072 VH V63L (antibody, name in Kabat numbering, V domains shown)
VH: QVQLVESGGGLVQPGRSLRLSCAASGFTFSNAWMHWVRQAPGKGLEWVAQIKDKGNAYAAYYAPSLKGRFTISRDDSKNSIYLQMNSLKTEDTAVYYCHYVHYASASTVLPAFGVDAWGQGTTVTVSS
VL: DIVMTQSPLSLPVTPGEPASISCQASQELVHMNRNTYLHWYQQKPGQAPRLLIYKVSNRFPGVPDRFSGSGSGTDFTLKISRVEAEDVGVYYCAQGTSVPFTFGQGTKLEIK
B16: H183/L072 VH V63A (antibody, name in Kabat numbering, V domains shown)
VH: QVQLVESGGGLVQPGRSLRLSCAASGFTFSNAWMHWVRQAPGKGLEWVAQIKDKGNAYAAYYAPSAKGRFTISRDDSKNSIYLQMNSLKTEDTAVYYCHYVHYASASTVLPAFGVDAWGQGTTVTVSS
VL: DIVMTQSPLSLPVTPGEPASISCQASQELVHMNRNTYLHWYQQKPGQAPRLLIYKVSNRFPGVPDRFSGSGSGTDFTLKISRVEAEDVGVYYCAQGTSVPFTFGQGTKLEIK
B17: H183/L072 VH T28Y (antibody, name in Kabat numbering, V domains shown)
VH: QVQLVESGGGLVQPGRSLRLSCAASGFYFSNAWMHWVRQAPGKGLEWVAQIKDKGNAYAAYYAPSVKGRFTISRDDSKNSIYLQMNSLKTEDTAVYYCHYVHYASASTVLPAFGVDAWGQGTTVTVSS
VL: DIVMTQSPLSLPVTPGEPASISCQASQELVHMNRNTYLHWYQQKPGQAPRLLIYKVSNRFPGVPDRFSGSGSGTDFTLKISRVEAEDVGVYYCAQGTSVPFTFGQGTKLEIK
B18: H183/L072 VH V63I (antibody, name in Kabat numbering, V domains shown)
VH: QVQLVESGGGLVQPGRSLRLSCAASGFTFSNAWMHWVRQAPGKGLEWVAQIKDKGNAYAAYYAPSIKGRFTISRDDSKNSIYLQMNSLKTEDTAVYYCHYVHYASASTVLPAFGVDAWGQGTTVTVSS
VL: DIVMTQSPLSLPVTPGEPASISCQASQELVHMNRNTYLHWYQQKPGQAPRLLIYKVSNRFPGVPDRFSGSGSGTDFTLKISRVEAEDVGVYYCAQGTSVPFTFGQGTKLEIK
B19: H183/L072 VH V63P (antibody, name in Kabat numbering, V domains shown)
VH: QVQLVESGGGLVQPGRSLRLSCAASGFTFSNAWMHWVRQAPGKGLEWVAQIKDKGNAYAAYYAPSPKGRFTISRDDSKNSIYLQMNSLKTEDTAVYYCHYVHYASASTVLPAFGVDAWGQGTTVTVSS
VL: DIVMTQSPLSLPVTPGEPASISCQASQELVHMNRNTYLHWYQQKPGQAPRLLIYKVSNRFPGVPDRFSGSGSGTDFTLKISRVEAEDVGVYYCAQGTSVPFTFGQGTKLEIK
B20: H183/L072 VH T28W (antibody, name in Kabat numbering, V domains shown)
VH: QVQLVESGGGLVQPGRSLRLSCAASGFWFSNAWMHWVRQAPGKGLEWVAQIKDKGNAYAAYYAPSVKGRFTISRDDSKNSIYLQMNSLKTEDTAVYYCHYVHYASASTVLPAFGVDAWGQGTTVTVSS
VL: DIVMTQSPLSLPVTPGEPASISCQASQELVHMNRNTYLHWYQQKPGQAPRLLIYKVSNRFPGVPDRFSGSGSGTDFTLKISRVEAEDVGVYYCAQGTSVPFTFGQGTKLEIK

The target of the assay is T1, Human CD137 ECD (human).
T1 construct: also called 4-1BB
T1 sequence (chain, as listed by the source limits assumed): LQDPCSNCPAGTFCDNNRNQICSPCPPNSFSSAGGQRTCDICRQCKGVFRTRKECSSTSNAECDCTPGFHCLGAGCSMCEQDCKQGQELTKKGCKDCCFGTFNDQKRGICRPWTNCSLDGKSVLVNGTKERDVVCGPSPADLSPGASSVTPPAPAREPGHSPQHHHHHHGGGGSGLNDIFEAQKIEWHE
Briefly: single mutant vs template dBBDu183H.
As for B1, the “fold change of affinity” value is 1.2 fold.
For B2 the value was 3.3 fold; for B3, 0.2 fold.
Regarding B4, the “fold change of affinity” value was 0.1 fold.
For B5 the value was 0 fold; for B6, 0 fold; for B7, 0 fold.
For B8 the value was 2.5 fold.
As to B9, the “fold change of affinity” value turned out to be 0.4 fold.
Turning to B10, the “fold change of affinity” value is 0.5 fold.
Consider B11, for which the “fold change of affinity” value stood at 0 fold.
Then B12, with 0 fold; and B13, with 0.3 fold.
For B14 the value was 0.8 fold; for B15, 0.9 fold.
For B16, the “fold change of affinity” value is 0.9 fold.
Then B17, with 1.1 fold; and B18, with 1.1 fold; and B19, with 1 fold.
For B20, the “fold change of affinity” value is 0.8 fold.

Values taken from patent US20210388087A1 (Chugai, published 2021).
